Laboratory results reported in paper PMC8324300, “CDK1 controls CHMP7-dependent nuclear envelope reformation” (eLife, 2021).

Legend:
Details in all cases: both partners purified
[1] = target: T1, recombinant CHMP7 (full length, wild type) (human, UniProt Q8WUX9 1-453); test: co-IP; purified CHMP7 or S3D/S441D with HA-LEM2^CT at 1:2 in TKD buffer, overnight at 4°C; CHMP7 captured on anti-CHMP7 Dynabeads; washes with 0.05% Tween-20; blots with anti-CHMP7 and anti-HA
T1 construct: CHMP7, human, full-length open reading frame; the TEV site cleaves at the 1st methionine; In the CDK1 experiments this is the sample incubated with CDK1:CyclinB1 without ATP; also called CHMP7 wildtype; WT; source: E. coli BL21(DE3), purified (Ni-NTA, TEV cleavage, Superdex 200, monomeric fractions); not shown: 2xHis6, N-terminal, cleaved; NusA, N-terminal, cleaved
T1 sequence (looked up): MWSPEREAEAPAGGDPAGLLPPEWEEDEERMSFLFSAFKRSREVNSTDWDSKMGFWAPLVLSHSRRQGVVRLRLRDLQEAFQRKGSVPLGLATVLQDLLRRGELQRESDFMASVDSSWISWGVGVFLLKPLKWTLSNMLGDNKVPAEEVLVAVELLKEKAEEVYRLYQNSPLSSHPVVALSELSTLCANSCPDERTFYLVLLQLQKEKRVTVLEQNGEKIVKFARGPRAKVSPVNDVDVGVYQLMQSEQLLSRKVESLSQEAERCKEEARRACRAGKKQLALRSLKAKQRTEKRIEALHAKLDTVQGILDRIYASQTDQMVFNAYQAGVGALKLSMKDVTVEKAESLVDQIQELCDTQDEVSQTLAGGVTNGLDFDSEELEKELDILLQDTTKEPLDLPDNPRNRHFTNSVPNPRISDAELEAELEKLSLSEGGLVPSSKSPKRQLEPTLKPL

[2] = target: T2, recombinant CHMP7 S3D/S441D (human, UniProt Q8WUX9 1-453, S3D | S441D); test: co-sedimentation; 5 μM CHMP7 or mutant with 10 μM HA-LEM2^CT (one legend says equimolar) in TKD buffer (50 mM Tris HCl pH 8, 150 mM KCl, 1 mM DTT), room temperature for 2 hr; 22,000 x g for 40 min at 4°C; blots with anti-CHMP7 and anti-HA
T2 construct: CHMP7, human, full length with phosphomimetic residues at Ser3 and Ser441; source: E. coli BL21(DE3), purified (Ni-NTA, TEV cleavage, Superdex 200); not shown: 2xHis6, N-terminal, cleaved; NusA, N-terminal, cleaved
T2 sequence (looked up): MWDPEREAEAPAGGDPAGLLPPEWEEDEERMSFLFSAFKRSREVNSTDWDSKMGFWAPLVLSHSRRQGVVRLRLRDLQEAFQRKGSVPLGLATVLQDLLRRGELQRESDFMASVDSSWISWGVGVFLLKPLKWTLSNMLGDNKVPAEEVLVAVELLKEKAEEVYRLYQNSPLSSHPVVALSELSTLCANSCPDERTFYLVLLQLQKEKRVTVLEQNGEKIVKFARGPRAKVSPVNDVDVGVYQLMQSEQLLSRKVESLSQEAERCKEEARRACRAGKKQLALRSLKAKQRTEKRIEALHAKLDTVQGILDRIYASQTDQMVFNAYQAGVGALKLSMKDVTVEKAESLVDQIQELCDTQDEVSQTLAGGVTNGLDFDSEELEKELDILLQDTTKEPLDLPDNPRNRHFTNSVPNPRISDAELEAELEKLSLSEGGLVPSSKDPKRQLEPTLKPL

[3] = target: T3, recombinant CHMP7 S3E/S441E (human, UniProt Q8WUX9 1-453, S3E | S441E); test: as above
T3 construct: CHMP7, human, full length with phosphomimetic residues at Ser3 and Ser441; also called CHMP7 S3E/D441E (as printed once in the methods); source: E. coli BL21(DE3), purified (Ni-NTA, TEV cleavage, Superdex 200); not shown: 2xHis6, N-terminal, cleaved; NusA, N-terminal, cleaved
T3 sequence (looked up): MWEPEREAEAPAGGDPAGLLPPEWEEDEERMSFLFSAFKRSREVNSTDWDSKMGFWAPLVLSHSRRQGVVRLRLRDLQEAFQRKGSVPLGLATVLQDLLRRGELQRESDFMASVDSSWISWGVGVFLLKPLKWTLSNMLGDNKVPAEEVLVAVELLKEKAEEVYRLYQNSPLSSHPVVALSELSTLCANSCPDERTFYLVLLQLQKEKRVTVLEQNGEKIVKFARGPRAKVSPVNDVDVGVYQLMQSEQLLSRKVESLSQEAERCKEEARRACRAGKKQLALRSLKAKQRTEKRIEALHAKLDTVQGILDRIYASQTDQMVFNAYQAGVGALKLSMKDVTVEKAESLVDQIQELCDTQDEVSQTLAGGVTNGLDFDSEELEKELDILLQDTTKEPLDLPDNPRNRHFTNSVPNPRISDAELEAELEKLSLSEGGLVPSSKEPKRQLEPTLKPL

[4] = target: T4, CDK1-phosphorylated CHMP7 (human, UniProt Q8WUX9 1-453, phosphoserine at Ser3 and Ser441 (CDK1 sites named by the paper)); test: co-IP; CHMP7 pre-incubated with CDK1:CyclinB1 with or without 3 mM ATP, then 5 μM CHMP7 with 10 μM HA-LEM2^CT dialysed overnight at 4°C from HiSalt (250 mM KCl) into LoSalt buffer (30 mM HEPES pH 8, 25 mM KCl, 1 mM DTT); CHMP7 captured on anti-CHMP7 Dynabeads
T4 construct: CHMP7, human, full-length open reading frame, phosphorylated in vitro by CDK1:CyclinB1; also called recombinant CHMP7 incubated with CDK1 and CCNB1 in the presence of ATP; source: E. coli BL21(DE3), purified; phosphorylated in vitro with bought CDK1:CyclinB1 complex (Millipore) and 3 mM ATP; not shown: 2xHis6, N-terminal, cleaved; NusA, N-terminal, cleaved
T4 sequence (looked up): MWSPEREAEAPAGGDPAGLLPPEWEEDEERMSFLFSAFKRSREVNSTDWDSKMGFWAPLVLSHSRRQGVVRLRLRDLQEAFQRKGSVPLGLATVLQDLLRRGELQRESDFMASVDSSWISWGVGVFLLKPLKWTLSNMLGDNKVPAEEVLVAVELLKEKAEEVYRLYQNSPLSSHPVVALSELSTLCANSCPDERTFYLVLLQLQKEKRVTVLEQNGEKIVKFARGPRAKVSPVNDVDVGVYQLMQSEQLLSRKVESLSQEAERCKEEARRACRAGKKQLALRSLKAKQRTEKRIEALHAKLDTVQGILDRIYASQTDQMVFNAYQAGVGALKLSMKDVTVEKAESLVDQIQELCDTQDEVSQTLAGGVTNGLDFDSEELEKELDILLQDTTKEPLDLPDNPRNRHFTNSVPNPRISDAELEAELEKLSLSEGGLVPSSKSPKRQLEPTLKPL

Measured: binding result

B1: recombinant HA-LEM2^CT (LEM2 C-terminal domain 395-503) (domain or fragment, human, UniProt Q8NC56 395-503, looked up)
chain: ILLKYRWRKLEEEEQAMYEMVKKIIDVVQDHYVDWEQDMERYPYVGILHVRDSLIPPQSRRRMKRVWDRAVEFLASNESRIQTESHRVAGEDMLVWRWTKPSSFSDSER
notes: LEM2 (LEMD2), human, codon-optimised synthetic gene, C-terminal domain residues 395-503; also called LEM2's C-terminus; source: E. coli BL21(DE3), purified (Ni-NTA, on-bead TEV cleavage); not shown: 2xHis6, N-terminal, cleaved; NusA, N-terminal, cleaved; HA, N-terminal, kept
binds: all assays above
